Values of other authors in publication PMC6473736.

Molecular target: Nterm (UniProt position 2, ----MVHLTPE)
Conditions: not stated (haem ligation state not given)

Substance: Human haemoglobin (adult Hb, alpha2beta2) (Homo sapiens)
- pKa: approximately 7.8 (α-chain) and 6.8 (β-chain)
